For 3 substances, biological activity, kynurenine bioassay on WISH cells and specific biological activity after tag removal, kynurenine bioassay on WISH cells results are on record in paper PMC5480026.

For assay [1], the target named is T1, hIFNγ receptor hIFNGR1 (human (endogenous in WISH)) (UniProt P15260).
T1 sequence: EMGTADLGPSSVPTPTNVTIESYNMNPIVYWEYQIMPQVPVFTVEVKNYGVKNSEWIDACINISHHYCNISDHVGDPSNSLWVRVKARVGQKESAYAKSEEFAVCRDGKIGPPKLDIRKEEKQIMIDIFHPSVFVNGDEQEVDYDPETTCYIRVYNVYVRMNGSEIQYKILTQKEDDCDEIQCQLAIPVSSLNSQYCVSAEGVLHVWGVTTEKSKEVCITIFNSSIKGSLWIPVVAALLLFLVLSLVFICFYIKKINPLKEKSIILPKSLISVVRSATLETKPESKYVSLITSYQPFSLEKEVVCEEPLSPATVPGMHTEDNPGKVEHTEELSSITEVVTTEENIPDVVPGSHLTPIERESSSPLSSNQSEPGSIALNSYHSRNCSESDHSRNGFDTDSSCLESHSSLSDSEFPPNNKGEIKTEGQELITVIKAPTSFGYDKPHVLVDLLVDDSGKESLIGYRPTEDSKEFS

The target in assay [2] is T1, hIFNγ receptor hIFNGR1 (human (endogenous in WISH)). This is another data set of the same source.

In assay [1], “His6-FLAG-K88Q fusion protein expressed in E. coli (from UniProt P01579 24-161) (ligand)” had a biological activity, kynurenine bioassay on WISH cells of 100 times lower.
As to “human interferon-gamma (hIFNγ), tag-free after enterokinase removal of the His6-FLAG tag (from UniProt P01579 24-161) (ligand)”, in assay [2], the specific biological activity after tag removal, kynurenine bioassay on WISH cells came to 3e+07 IU/mg.
For the substance “His6-FLAG-hIFNγ fusion protein expressed in E. coli (from UniProt P01579 24-161) (ligand)”, the biological activity, kynurenine bioassay on WISH cells in assay [1] came out at 100 times lower.
